Article PMC5253704

What was measured:
Experiment in all cases: ELISA; one protein (25 nM) or two proteins together (12.5 nM each) coated on wells 16 h at 4 °C in buffer A (20 mM Tris-HCl, 150 mM NaCl, 1 mM ZnCl2, 1 mM CaCl2, 1 mM MgCl2, pH 7.4); soluble protein at 50 to 0.78 nM; detected with antibody and HRP secondary; calculated KD
[1] = molecular target: recombinant murine α3(V)-NTD (N-terminal non-triple helical domain of the α3(V) collagen chain) (murine)
[2] = molecular target: GPC1+FGF2 combined (co-adsorbed on the well) (UniProt P35052)
recombinant FGF2 = recombinant FGF2 (UniProt P09038)
[3] = molecular target: recombinant glypican-1 (R&D Systems) (UniProt P35052)

recombinant FGF2, sequence (P09038 143-288): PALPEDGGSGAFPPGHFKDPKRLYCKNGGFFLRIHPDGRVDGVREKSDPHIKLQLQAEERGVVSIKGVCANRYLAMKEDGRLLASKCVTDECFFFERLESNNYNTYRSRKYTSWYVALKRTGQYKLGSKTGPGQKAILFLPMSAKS

Kd [1] [nM] | Kd [2] [nM] | Kd (recombinant FGF2) [nM] | Kd [3] [nM] | Substance
36 |  |  |  | recombinant FGF2 (from UniProt P09038 143-288) (ligand)
34 |  |  |  | recombinant glypican-1 (R&D Systems) (from UniProt P35052 24-530) (natural protein)
 | 16 | 35 | 33 | recombinant murine α3(V)-NTD (N-terminal non-triple helical domain of the α3(V) collagen chain) (domain or fragment)
